For the experiment, the target named is Sodium/potassium-transporting ATPase subunit alpha-1 (human (endogenous in frontal lobe tissue)) (UniProt P05023).

For the substance SST14 (peptide), the total ^86Rb^+ uptake in HEK293 cells in the presence of SST14 (50 μM), compared to controls was 74.4 % of control; the total ^86Rb^+ uptake in ReN (ReNcell VM) cells in the presence of SST14 (50 μM), compared to controls was 91.5 % of control; the total ^86Rb^+ uptake in mouse N2a cells in the presence of SST14 (50 μM), compared to controls is 53.6 % of control.

Source of the values: publication PMC6538167.
